Data: US7558625B2, “Combined micro-channel generation and iontophoresis for transdermal delivery of pharmaceutical agents” (TransPharma Medical Ltd., priority 2004, dated 2009)

Test: Transdermal delivery of hGH by ViaDerm and iontophoresis in anesthetized pigs, plasma hGH
Type: in vivo
Design: average AUC: unit: ng×hr/ml
Procedure: ViaDerm applications were performed on 8 adjacent sites on the marginal ear of each of the pigs using 80 μm electrodes and 2 bursts.
2 groups of pigs (males, 10-15 kg, large white) were tested: • Group 1: SC (250 μg)—3 pigs (no. 3, 9 and 25). • Group 2: ViaDerm and then iontophoresis was applied 5 times, each iontophoresis patch contained 22.5 mg (22.5×5; total of 112.5 mg)—3 pigs (no. 19, 20 and 21). Results

[1] = pigs, ViaDerm and Iontophoresis group, 5 consecutive patches

hGH: human growth hormone (Genotropin, Pharmacia and Upjohn)
hGH plasma levels (SC 0.25 mg hGH, pigs, Average, 12 h): 1.1 ng/mL
average AUC (SC 250 μg, 3 pigs): 90.3
AUC (SC 250 μg, pig no. 3): 44 ng·h/mL
AUC (SC 250 μg, pig no. 9): 102 ng·h/mL
AUC (SC 250 μg, pig no. 25): 125 ng·h/mL
Amount delivered (SC 250 μg, pigs): 250 µg
average AUC (ViaDerm, Ionto 22.5 mg × 5, 3 pigs): 210.3
AUC (ViaDerm, Ionto 22.5 mg × 5, pig no. 19): 138 ng·h/mL
AUC (ViaDerm, Ionto 22.5 mg × 5, pig no. 20): 215 ng·h/mL
AUC (ViaDerm, Ionto 22.5 mg × 5, pig no. 21): 278 ng·h/mL
Amount delivered (ViaDerm, Ionto 22.5 mg × 5, pigs): 589 µg
hGH plasma levels (ViaDerm, Iontoph. × 5 Total 112.5 mg hGH, pig19, 0 h): 0.04 ng/mL
hGH plasma levels (ViaDerm, Iontoph. × 5 Total 112.5 mg hGH, pig19, 1 h): 8.39 ng/mL
hGH plasma levels (ViaDerm, Iontoph. × 5 Total 112.5 mg hGH, pig19, 2 h): 18.46 ng/mL
hGH plasma levels (ViaDerm, Iontoph. × 5 Total 112.5 mg hGH, pig19, 3 h): 24.50 ng/mL
hGH plasma levels (ViaDerm, Iontoph. × 5 Total 112.5 mg hGH, pig19, 4 h): 25.34 ng/mL
hGH plasma levels (ViaDerm, Iontoph. × 5 Total 112.5 mg hGH, pig19, 5 h): 25.27 ng/mL
hGH plasma levels (ViaDerm, Iontoph. × 5 Total 112.5 mg hGH, pig19, 6 h): 13.34 ng/mL
hGH plasma levels (ViaDerm, Iontoph. × 5 Total 112.5 mg hGH, pig19, 7 h): 9.63 ng/mL
hGH plasma levels (ViaDerm, Iontoph. × 5 Total 112.5 mg hGH, pig19, 8 h): 4.03 ng/mL
hGH plasma levels (ViaDerm, Iontoph. × 5 Total 112.5 mg hGH, pig19, 9 h): 4.08 ng/mL
hGH plasma levels (ViaDerm, Iontoph. × 5 Total 112.5 mg hGH, pig19, 10 h): 3.32 ng/mL
hGH plasma levels (ViaDerm, Iontoph. × 5 Total 112.5 mg hGH, pig19, 11 h): 1.42 ng/mL
hGH plasma levels (ViaDerm, Iontoph. × 5 Total 112.5 mg hGH, pig19, 12 h): 1.38 ng/mL
hGH plasma levels (ViaDerm, Iontoph. × 5 Total 112.5 mg hGH, pig20, 0 h): 0.06 ng/mL
hGH plasma levels (ViaDerm, Iontoph. × 5 Total 112.5 mg hGH, pig20, 1 h): 7.01 ng/mL
hGH plasma levels (ViaDerm, Iontoph. × 5 Total 112.5 mg hGH, pig20, 2 h): 22.45 ng/mL
hGH plasma levels (ViaDerm, Iontoph. × 5 Total 112.5 mg hGH, pig20, 3 h): 26.93 ng/mL
hGH plasma levels (ViaDerm, Iontoph. × 5 Total 112.5 mg hGH, pig20, 4 h): 31.04 ng/mL
hGH plasma levels (ViaDerm, Iontoph. × 5 Total 112.5 mg hGH, pig20, 5 h): 28.21 ng/mL
hGH plasma levels (ViaDerm, Iontoph. × 5 Total 112.5 mg hGH, pig20, 6 h): 22.09 ng/mL
hGH plasma levels (ViaDerm, Iontoph. × 5 Total 112.5 mg hGH, pig20, 7 h): 44.00 ng/mL
hGH plasma levels (ViaDerm, Iontoph. × 5 Total 112.5 mg hGH, pig20, 8 h): 10.69 ng/mL
hGH plasma levels (ViaDerm, Iontoph. × 5 Total 112.5 mg hGH, pig20, 9 h): 8.98 ng/mL
hGH plasma levels (ViaDerm, Iontoph. × 5 Total 112.5 mg hGH, pig20, 10 h): 6.49 ng/mL
hGH plasma levels (ViaDerm, Iontoph. × 5 Total 112.5 mg hGH, pig20, 11 h): 4.91 ng/mL
hGH plasma levels (ViaDerm, Iontoph. × 5 Total 112.5 mg hGH, pig20, 12 h): 5.01 ng/mL
hGH plasma levels (ViaDerm, Iontoph. × 5 Total 112.5 mg hGH, pig21, 0 h): 0.08 ng/mL
hGH plasma levels (ViaDerm, Iontoph. × 5 Total 112.5 mg hGH, pig21, 1 h): 2.68 ng/mL
hGH plasma levels (ViaDerm, Iontoph. × 5 Total 112.5 mg hGH, pig21, 2 h): 10.38 ng/mL
hGH plasma levels (ViaDerm, Iontoph. × 5 Total 112.5 mg hGH, pig21, 3 h): 24.52 ng/mL
hGH plasma levels (ViaDerm, Iontoph. × 5 Total 112.5 mg hGH, pig21, 4 h): 28.87 ng/mL
hGH plasma levels (ViaDerm, Iontoph. × 5 Total 112.5 mg hGH, pig21, 5 h): 44.93 ng/mL
hGH plasma levels (ViaDerm, Iontoph. × 5 Total 112.5 mg hGH, pig21, 6 h): 34.25 ng/mL
hGH plasma levels (ViaDerm, Iontoph. × 5 Total 112.5 mg hGH, pig21, 7 h): 33.54 ng/mL
hGH plasma levels (ViaDerm, Iontoph. × 5 Total 112.5 mg hGH, pig21, 8 h): 28.93 ng/mL
hGH plasma levels (ViaDerm, Iontoph. × 5 Total 112.5 mg hGH, pig21, 9 h): 24.89 ng/mL
hGH plasma levels (ViaDerm, Iontoph. × 5 Total 112.5 mg hGH, pig21, 10 h): 22.46 ng/mL
hGH plasma levels (ViaDerm, Iontoph. × 5 Total 112.5 mg hGH, pig21, 11 h): 17.86 ng/mL
hGH plasma levels (ViaDerm, Iontoph. × 5 Total 112.5 mg hGH, pig21, 12 h): 9.00 ng/mL
hGH plasma levels (ViaDerm, Iontoph. × 5 Total 112.5 mg hGH, pigs, Average, 0 h): 0.06 ng/mL
hGH plasma levels (ViaDerm, Iontoph. × 5 Total 112.5 mg hGH, pigs, Average, 1 h): 6.03 ng/mL
hGH plasma levels (ViaDerm, Iontoph. × 5 Total 112.5 mg hGH, pigs, Average, 2 h): 17.10 ng/mL
hGH plasma levels (ViaDerm, Iontoph. × 5 Total 112.5 mg hGH, pigs, Average, 3 h): 25.32 ng/mL
hGH plasma levels (ViaDerm, Iontoph. × 5 Total 112.5 mg hGH, pigs, Average, 4 h): 28.41 ng/mL
hGH plasma levels (ViaDerm, Iontoph. × 5 Total 112.5 mg hGH, pigs, Average, 5 h): 32.80 ng/mL
hGH plasma levels (ViaDerm, Iontoph. × 5 Total 112.5 mg hGH, pigs, Average, 6 h): 23.23 ng/mL
hGH plasma levels (ViaDerm, Iontoph. × 5 Total 112.5 mg hGH, pigs, Average, 7 h): 29.06 ng/mL
hGH plasma levels (ViaDerm, Iontoph. × 5 Total 112.5 mg hGH, pigs, Average, 8 h): 14.55 ng/mL
hGH plasma levels (ViaDerm, Iontoph. × 5 Total 112.5 mg hGH, pigs, Average, 9 h): 12.65 ng/mL
hGH plasma levels (ViaDerm, Iontoph. × 5 Total 112.5 mg hGH, pigs, Average, 10 h): 10.75 ng/mL
hGH plasma levels (ViaDerm, Iontoph. × 5 Total 112.5 mg hGH, pigs, Average, 11 h): 8.06 ng/mL
hGH plasma levels (ViaDerm, Iontoph. × 5 Total 112.5 mg hGH, pigs, Average, 12 h): 5.13 ng/mL
average AUC value (pigs, SC group): 90.3 ng·h/mL
AUC [1]: 210.3 ng·h/mL
Cmax [1]: 32.8 ng/mL
Tmax [1]: 5 to 7 h
skin irritation at the drug and the reference electrode (pigs, ViaDerm and Iontophoresis treated group): no irritation was observed
